In the supplement of paper PMC10567573:

B1: GFOD1 (parent)
chain: SDDFCTFQMVLEGGVCCTVTLNFN

Variants of: B1
Assay: protein stability index of a GFP-peptide fusion (GPS, HEK-293T) (PSI 1-6); higher = more stable
Conditions: c terminus: a fixed tail appended
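Also: lentivirally expressed fusions sorted by FACS into six bins by GFP to DsRed ratio, PSI derived from sequencing read proportions per bin multiplied by bin number.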

| Variant | protein stability index |
| --- | --- |
| SDDFCTFQMVLEGGVCCCVTLNFN [T18C] | 2.71 |
| SDDFCTFQMVLEGGVCCIVTLNFN [T18I] | 3.52 |
| SDDFCTFQMVLEGGVCCAVTLNFN [T18A] | 3.01 |
| SDDFCTFQMVLEGGVCCRVTLNFN [T18R] | 1.48 |
| SDDFCTFQMVLEGGVCCHVTLNFN [T18H] | 2.14 |
| SDDFCTFQMVLEGGVCCEVTLNFN [T18E] | 3.76 |
| SDDFCTFQMVLEGGVCCYVTLNFN [T18Y] | 2.44 |
| SDDFCTFQMVLEGGVCCWVTLNFN [T18W] | 1.95 |
| SDDFCTFQMVLEGGVCCNVTLNFN [T18N] | 2.33 |
| SDDFCTFQMVLEGGVCCGVTLNFN [T18G] | 3.96 |
| SDDFCTFQMVLEGGVCCLVTLNFN [T18L] | 2.5 |
| SDDFCTFQMVLEGGVCCVVTLNFN [T18V] | 3.91 |
| SDDFCTFQMVLEGGVCCDVTLNFN [T18D] | 3.76 |
| SDDFCTFQMVLEGGVCCMVTLNFN [T18M] | 2.07 |
| SDDFCTFQMVLEGGVCCFVTLNFN [T18F] | 2.37 |
| SDDFCTFQMVLEGGVCCTVTANFN [L21A] | 2.61 |
| SDDFCTFQMVLEGGVCCTVTNNFN [L21N] | 1.35 |
| SDDFCTFQMVLEGGVCCTVTQNFN [L21Q] | 1.93 |
| SDDFCTFQMVLEGGVCCTVTPNFN [L21P] | 2.02 |
| SDDFCTFQMVLEGGVCCTVTSNFN [L21S] | 1.84 |
| SDDFCTFQMVLEGGVCCTVTDNFN [L21D] | 1.75 |
| SDDFCTFQMVLEGGVCCTVTRNFN [L21R] | 1.55 |
| SDDFCTFQMVLEGGVCCTVTFNFN [L21F] | 2.73 |
| SDDFCTFQMVLEGGVCCTVTENFN [L21E] | 1.63 |

| Variant | protein stability index |
| --- | --- |
| SDDFCTFQMVLEGGVCCTVTGNFN [L21G] | 2.41 |
| SDDFCTFQMVLEGGVCCTVTMNFN [L21M] | 2.22 |
| SDDFCTFQMVLEGGVCCTVTYNFN [L21Y] | 1.69 |
| SDDFCTFQMVLEGGVCCTVTINFN [L21I] | 3 |
| SDDFCTFQMVLEGGVCCTVTLLFN [N22L] | 2.04 |
| SDDFCTFQMVLEGGVCCTVTLDFN [N22D] | 2.09 |
| SDDFCTFQMVLEGGVCCTVTLYFN [N22Y] | 2.33 |
| SDDFCTFQMVLEGGVCCTVTLEFN [N22E] | 1.62 |
| SDDFCTFQMVLEGGVCCTVTLQFN [N22Q] | 4.04 |
| SDDFCTFQMVLEGGVCCTVTLPFN [N22P] | 2.9 |
| SDDFCTFQMVLEGGVCCTVTLHFN [N22H] | 2.62 |
| SDDFCTFQMVLEGGVCCTVTLWFN [N22W] | 2.88 |
| SDDFCTFQMVLEGGVCCTVTLRFN [N22R] | 2.43 |
| SDDFCTFQMVLEGGVCCTVTLIFN [N22I] | 3.6 |
| SDDFCTFQMVLEGGVCCTVTLCFN [N22C] | 3.25 |
| SDDFCTFQVVLEGGVCCTVTLNFN [M9V] | 2.59 |
| SDDFCTFQKVLEGGVCCTVTLNFN [M9K] | 1.8 |
| SDDFCTFQYVLEGGVCCTVTLNFN [M9Y] | 2.76 |
| SDDFCTFQPVLEGGVCCTVTLNFN [M9P] | 1.27 |
| SDDFCTFQQVLEGGVCCTVTLNFN [M9Q] | 1.55 |
| SDDFCTFQTVLEGGVCCTVTLNFN [M9T] | 3.09 |
| SDDFCTFQLVLEGGVCCTVTLNFN [M9L] | 2.7 |
| SDDFCTFQIVLEGGVCCTVTLNFN [M9I] | 3.34 |
| SDDFCTFQHVLEGGVCCTVTLNFN [M9H] | 2.74 |

| Variant | protein stability index |
| --- | --- |
| SDDFCTFQWVLEGGVCCTVTLNFN [M9W] | 2.28 |
| SDDFCTFQMVLEGGVCCTDTLNFN [V19D] | 2.65 |
| SDDFCTFQMVLEGGVCCTATLNFN [V19A] | 1.95 |
| SDDFCTFQMVLEGGVCCTNTLNFN [V19N] | 2.07 |
| SDDFCTFQMVLEGGVCCTITLNFN [V19I] | 3.22 |
| SDDFCTFQMVLEGGVCCTQTLNFN [V19Q] | 1.75 |
| SDDFCTFQMVLEGGVCCTTTLNFN [V19T] | 3.14 |
| SDDFCTFQMVLEGGVCCTRTLNFN [V19R] | 1.9 |
| SDDFCTFQMVLEGGVCCTETLNFN [V19E] | 2.11 |
| SDDFCTFQMVLEGGVCCTFTLNFN [V19F] | 2.73 |
| SDDFCTFQMVLEGGVCCTLTLNFN [V19L] | 3.49 |
| SDDFCTFQMVLEGGVCCTWTLNFN [V19W] | 2.61 |
| SDDFCTFQMVLEGGVCCTCTLNFN [V19C] | 3.15 |
| SDDFCTFQMVLEGGVCCTPTLNFN [V19P] | 2.12 |
| SDDFCTFQMVLEGGVCCTGTLNFN [V19G] | 2.02 |
| SDDFCTFQMVLEGGVCCTSTLNFN [V19S] | 2.07 |
| SDDFCTFQMVLEGGVCCTKTLNFN [V19K] | 1.22 |
| SDDFCTFQMVLEGGVCCTHTLNFN [V19H] | 2.41 |
| SDDFCTFQMVLEGGVCCTYTLNFN [V19Y] | 2.38 |
| SDDFCTFQMVLEGGVCFTVTLNFN [C17F] | 3.18 |
| SDDFCTFQMVLEGGVCLTVTLNFN [C17L] | 3.21 |
| SDDFCTFQMVLEGGVCNTVTLNFN [C17N] | 2.77 |
| SDDFCTFQMVLEGGVCPTVTLNFN [C17P] | 2.66 |
| SDDFCTFQMVLEGGVCATVTLNFN [C17A] | 2.49 |

| Variant | protein stability index |
| --- | --- |
| SDDFCTFQMVLEGGVCITVTLNFN [C17I] | 2.36 |
| SDDFCTFQMVLEGGVCVTVTLNFN [C17V] | 1.89 |
| SDDFCTFQMVLEGGVCETVTLNFN [C17E] | 1.21 |
| SDDFCTFQMVLEGGVCKTVTLNFN [C17K] | 2.52 |
| SDDFCTFQMVLEGGVCQTVTLNFN [C17Q] | 2.87 |
| SDDFCTFQMVLEGGVCTTVTLNFN [C17T] | 3.25 |
| SDDFCTFQMVLEGGVCWTVTLNFN [C17W] | 2.79 |
| SDDFCTFQMVLEGGVCDTVTLNFN [C17D] | 1.8 |
| SDDFCTFQMVLEGGVCHTVTLNFN [C17H] | 2.13 |
| SDDFCTFQMVLEGEVCCTVTLNFN [G14E] | 2.08 |
| SDDFCTFQMVLEGQVCCTVTLNFN [G14Q] | 1.74 |
| SDDFCTFQMVLEGMVCCTVTLNFN [G14M] | 2.54 |
| SDDFCTFQMVLEGNVCCTVTLNFN [G14N] | 1.78 |
| SDDFCTFQMVLEGRVCCTVTLNFN [G14R] | 1.6 |
| SDDFCTFQMVLEGKVCCTVTLNFN [G14K] | 2.74 |
| SDDFCTFQMVLEGPVCCTVTLNFN [G14P] | 2.84 |
| SDDFCTFQMVLEGYVCCTVTLNFN [G14Y] | 1.83 |
| SDDFCTFQMVLEGAVCCTVTLNFN [G14A] | 2.87 |
| SDDFCTFQMVLEGWVCCTVTLNFN [G14W] | 2.93 |
| SDDFCTFQMVLEGCVCCTVTLNFN [G14C] | 2.19 |
| SDDFCTFQMVLEGDVCCTVTLNFN [G14D] | 3.01 |
| SDDFCTFQMVLEGLVCCTVTLNFN [G14L] | 3.96 |
